Results reported in patent US20250277031A1.

How the values were obtained:
[1] = target: mouse CD47 on mouse red blood cells (mouse) (UniProt Q61735); test: flow cytometry on mouse RBCs
[2] = target: cynomolgus CD47 on cynomolgus red blood cells (cynomolgus); test: flow cytometry on cynomolgus RBCs
[3] = target: human CD47 on human red blood cells (human) (UniProt Q08722); test: flow cytometry on human RBCs
[4] = target: rat CD47 on rat red blood cells (rat) (UniProt P97829); test: flow cytometry on rat RBCs
rat CD47 on rat red blood cells (rat), sequence (P97829 19-303): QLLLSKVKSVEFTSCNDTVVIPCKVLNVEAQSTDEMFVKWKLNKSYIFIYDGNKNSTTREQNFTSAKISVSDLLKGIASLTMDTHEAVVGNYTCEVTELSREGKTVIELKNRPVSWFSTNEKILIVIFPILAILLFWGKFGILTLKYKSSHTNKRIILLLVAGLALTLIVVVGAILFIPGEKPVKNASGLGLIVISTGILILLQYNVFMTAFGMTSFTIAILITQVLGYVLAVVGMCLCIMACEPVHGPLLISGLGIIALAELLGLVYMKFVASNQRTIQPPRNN

mouse CD47 on mouse red blood cells (mouse), sequence (Q61735 19-303): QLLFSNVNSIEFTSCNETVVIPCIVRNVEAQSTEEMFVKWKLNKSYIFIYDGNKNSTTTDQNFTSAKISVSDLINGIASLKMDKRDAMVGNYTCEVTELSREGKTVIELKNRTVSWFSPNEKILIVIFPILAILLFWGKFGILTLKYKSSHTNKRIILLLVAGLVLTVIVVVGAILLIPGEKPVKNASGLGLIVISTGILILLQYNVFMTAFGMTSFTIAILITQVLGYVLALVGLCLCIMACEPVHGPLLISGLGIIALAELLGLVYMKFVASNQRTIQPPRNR

MFI [1]: 3.21
MFI [2]: 3.95
MFI [3]: 3.65
MFI [4]: 3.33
Substance: Isotype control (antibody)
